Measured values published in patent publication US20220017863A1 (H LEE MOFFITT CANCER CENTER AND RESEARCH INSTITUTE, published 2022).

Columns and labels:
[1] = target: T1, pyruvate kinase M (PKM) (mouse, UniProt P52480 1-531, limits assumed); assay: reverse co-IP with antibody to the enzyme, anti-Sirt2 immunoblot, activated WT mouse CD3+ T cell extracts (FIG. 3C)
T1 construct: also called PKM1/2; pyruvate kinase isozymes M1/M2

[2] = target: T2, oxoglutarate dehydrogenase (OGDH) (mouse, UniProt Q60597 41-1023, limits assumed); assay: co-IP/immunoblot and reverse co-IP/immunoblot, activated WT mouse CD3+ T cell extracts
T2 construct: Endogenous protein in lysate
T2 sequence (looked up): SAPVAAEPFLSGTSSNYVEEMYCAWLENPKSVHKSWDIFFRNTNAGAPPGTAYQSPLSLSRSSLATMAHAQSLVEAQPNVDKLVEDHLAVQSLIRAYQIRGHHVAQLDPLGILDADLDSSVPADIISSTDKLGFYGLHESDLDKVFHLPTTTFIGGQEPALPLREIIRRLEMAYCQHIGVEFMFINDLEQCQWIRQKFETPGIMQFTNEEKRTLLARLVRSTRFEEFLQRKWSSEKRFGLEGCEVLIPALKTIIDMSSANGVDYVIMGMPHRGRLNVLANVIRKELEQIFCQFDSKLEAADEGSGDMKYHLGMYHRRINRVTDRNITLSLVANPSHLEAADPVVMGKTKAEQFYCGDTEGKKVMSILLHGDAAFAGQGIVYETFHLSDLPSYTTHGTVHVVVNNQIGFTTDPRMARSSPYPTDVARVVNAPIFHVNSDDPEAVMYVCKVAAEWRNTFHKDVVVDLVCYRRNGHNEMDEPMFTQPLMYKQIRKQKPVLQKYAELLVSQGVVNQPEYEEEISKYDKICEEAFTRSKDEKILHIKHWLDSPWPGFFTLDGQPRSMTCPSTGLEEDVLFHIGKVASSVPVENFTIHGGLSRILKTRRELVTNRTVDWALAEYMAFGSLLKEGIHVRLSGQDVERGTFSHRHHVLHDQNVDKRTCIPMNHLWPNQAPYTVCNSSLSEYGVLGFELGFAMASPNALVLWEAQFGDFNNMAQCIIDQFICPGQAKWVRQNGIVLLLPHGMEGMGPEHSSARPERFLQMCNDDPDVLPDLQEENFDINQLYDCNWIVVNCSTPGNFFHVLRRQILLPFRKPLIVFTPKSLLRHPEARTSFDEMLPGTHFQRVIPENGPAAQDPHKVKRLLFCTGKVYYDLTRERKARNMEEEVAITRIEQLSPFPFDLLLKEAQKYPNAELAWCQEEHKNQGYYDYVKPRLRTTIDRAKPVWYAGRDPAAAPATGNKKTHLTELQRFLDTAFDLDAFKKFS

[3] = target: T3, aconitase 2 (ACO2) (mouse, UniProt Q99KI0 28-780); assay: as above
T3 sequence (looked up): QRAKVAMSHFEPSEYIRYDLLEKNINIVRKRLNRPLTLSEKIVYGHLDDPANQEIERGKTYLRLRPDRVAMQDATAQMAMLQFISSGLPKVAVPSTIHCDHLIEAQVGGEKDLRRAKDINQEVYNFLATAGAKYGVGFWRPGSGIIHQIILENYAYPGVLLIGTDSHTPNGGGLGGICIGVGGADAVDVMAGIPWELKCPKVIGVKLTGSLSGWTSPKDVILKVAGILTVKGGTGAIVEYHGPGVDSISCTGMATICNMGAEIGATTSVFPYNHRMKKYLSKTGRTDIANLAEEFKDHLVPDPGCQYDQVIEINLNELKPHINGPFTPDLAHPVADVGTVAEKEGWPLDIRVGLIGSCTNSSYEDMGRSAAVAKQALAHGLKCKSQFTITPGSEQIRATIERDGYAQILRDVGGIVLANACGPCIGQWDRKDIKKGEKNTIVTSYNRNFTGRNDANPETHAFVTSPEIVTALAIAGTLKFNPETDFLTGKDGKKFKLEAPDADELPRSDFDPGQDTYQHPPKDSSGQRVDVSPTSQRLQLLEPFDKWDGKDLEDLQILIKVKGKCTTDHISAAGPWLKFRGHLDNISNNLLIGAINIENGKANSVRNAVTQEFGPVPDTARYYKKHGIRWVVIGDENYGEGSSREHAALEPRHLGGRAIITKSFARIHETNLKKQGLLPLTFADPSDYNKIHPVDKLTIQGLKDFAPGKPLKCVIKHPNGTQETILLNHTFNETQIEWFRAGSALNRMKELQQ

[4] = target: T4, Hexokinase 1 (HK1) (mouse, UniProt P17710-3 1-918, limits assumed); assay: co-IP with anti-Sirt2, immunoblot, activated WT mouse CD3+ T cell extracts (FIG. 3B)
T4 construct: Endogenous protein in lysate
T4 sequence (looked up): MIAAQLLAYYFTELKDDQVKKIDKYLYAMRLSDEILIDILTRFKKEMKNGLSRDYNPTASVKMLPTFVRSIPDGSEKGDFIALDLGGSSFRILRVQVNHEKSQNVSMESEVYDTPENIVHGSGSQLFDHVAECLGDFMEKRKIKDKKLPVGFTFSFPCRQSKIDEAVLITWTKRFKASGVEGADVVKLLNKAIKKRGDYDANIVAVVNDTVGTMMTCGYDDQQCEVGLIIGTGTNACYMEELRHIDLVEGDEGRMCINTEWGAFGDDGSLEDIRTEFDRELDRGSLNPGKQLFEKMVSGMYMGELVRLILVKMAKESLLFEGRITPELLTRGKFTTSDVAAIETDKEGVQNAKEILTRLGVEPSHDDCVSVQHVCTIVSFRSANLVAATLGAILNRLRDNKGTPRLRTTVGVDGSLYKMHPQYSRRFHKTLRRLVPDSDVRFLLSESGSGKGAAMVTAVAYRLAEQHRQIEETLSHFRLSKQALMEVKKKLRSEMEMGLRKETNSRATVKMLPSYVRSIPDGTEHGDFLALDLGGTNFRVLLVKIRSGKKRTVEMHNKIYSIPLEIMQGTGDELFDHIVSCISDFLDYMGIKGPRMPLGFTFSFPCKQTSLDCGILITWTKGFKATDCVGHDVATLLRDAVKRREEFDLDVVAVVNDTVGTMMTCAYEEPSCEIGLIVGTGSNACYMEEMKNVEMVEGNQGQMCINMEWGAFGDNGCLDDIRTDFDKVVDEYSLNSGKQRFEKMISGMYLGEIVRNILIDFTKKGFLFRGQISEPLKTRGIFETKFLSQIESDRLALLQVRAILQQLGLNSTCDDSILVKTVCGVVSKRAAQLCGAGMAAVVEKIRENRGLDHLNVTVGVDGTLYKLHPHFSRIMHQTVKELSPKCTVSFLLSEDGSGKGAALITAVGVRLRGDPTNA

Measured: binding result

T1 sequence (P52480 whole entry): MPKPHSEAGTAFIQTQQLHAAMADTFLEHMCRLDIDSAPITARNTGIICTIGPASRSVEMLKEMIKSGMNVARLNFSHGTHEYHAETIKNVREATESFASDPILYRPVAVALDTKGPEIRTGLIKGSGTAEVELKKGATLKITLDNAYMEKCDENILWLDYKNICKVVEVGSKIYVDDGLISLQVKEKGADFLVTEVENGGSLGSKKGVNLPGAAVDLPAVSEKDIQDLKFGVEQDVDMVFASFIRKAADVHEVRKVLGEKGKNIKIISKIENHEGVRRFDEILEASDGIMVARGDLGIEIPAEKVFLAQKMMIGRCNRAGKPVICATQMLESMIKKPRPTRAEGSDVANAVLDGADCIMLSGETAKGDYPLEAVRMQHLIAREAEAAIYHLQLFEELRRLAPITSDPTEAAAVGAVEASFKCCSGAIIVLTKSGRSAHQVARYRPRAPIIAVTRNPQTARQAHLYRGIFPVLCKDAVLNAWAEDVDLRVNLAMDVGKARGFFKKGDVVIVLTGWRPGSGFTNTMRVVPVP

B1: Sirt2 (enzyme, mouse, UniProt Q8VDQ8 2-389, looked up)
chain: AEPDPSDPLETQAGKVQEAQDSDSDTEGGATGGEAEMDFLRNLFTQTLGLGSQKERLLDELTLEGVTRYMQSERCRKVICLVGAGISTSAGIPDFRSPSTGLYANLEKYHLPYPEAIFEISYFKKHPEPFFALAKELYPGQFKPTICHYFIRLLKEKGLLLRCYTQNIDTLERVAGLEPQDLVEAHGTFYTSHCVNTSCRKEYTMGWMKEKIFSEATPRCEQCQSVVKPDIVFFGENLPSRFFSCMQSDFSKVDLLIIMGTSLQVQPFASLISKAPLATPRLLINKEKTGQTDPFLGMMMGLGGGMDFDSKKAYRDVAWLGDCDQGCLALADLLGWKKELEDLVRREHANIDAQSGSQAPNPSTTISPGKSPPPAKEAARTKEKEEQQ
notes: Endogenous protein immunoprecipitated from T cell lysates with anti-Sirt2 (Sigma #9441); also called Sirtuin 2
binds: all assays above
